Measurements as given in PMC4300205, “Human Cerberus Prevents Nodal-Receptor Binding, Inhibits Nodal Signaling, and Suppresses Nodal-Mediated Phenotypes” (PLoS ONE, 2015).

T1: Human Cerberus-hIgg-Fc (human, UniProt O95813 18-267)
T1 construct: signal peptide in the construct; also called Cerberus-Fc; full-length Cerberus-Fc; source: CHO cells, purified from conditioned medium (Protein A, SEC); not shown: Fc (human IgG1), C-terminal, kept
T1 sequence (looked up): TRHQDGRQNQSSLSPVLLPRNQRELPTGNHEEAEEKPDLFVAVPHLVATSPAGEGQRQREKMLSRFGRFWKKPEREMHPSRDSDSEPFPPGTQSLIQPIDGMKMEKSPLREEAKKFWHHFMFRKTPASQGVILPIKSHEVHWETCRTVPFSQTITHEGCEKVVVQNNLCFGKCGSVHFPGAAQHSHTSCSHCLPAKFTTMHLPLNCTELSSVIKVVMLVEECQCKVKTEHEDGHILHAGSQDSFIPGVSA

T2: BMPRII-Fc (human, UniProt Q13873 27-150)
T2 construct: type II receptor BMPRII, human, extracellular domain-Fc fusion; Bought protein; source: bought: R&D Biosystems or Life Technologies
T2 sequence (looked up): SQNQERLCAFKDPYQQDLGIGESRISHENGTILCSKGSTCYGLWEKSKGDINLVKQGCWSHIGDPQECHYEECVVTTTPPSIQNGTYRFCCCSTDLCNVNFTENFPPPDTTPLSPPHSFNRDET

T3: Cripto-1-Fc (human, UniProt P13385 31-151)
T3 construct: signal peptide in the construct; Cripto1 (1-151), amplicon from cDNA (Thermo Scientific) fused to the hIgg1-Fc domain by PCR; source: CHO cells, purified from conditioned medium (Protein A, SEC)
T3 sequence (looked up): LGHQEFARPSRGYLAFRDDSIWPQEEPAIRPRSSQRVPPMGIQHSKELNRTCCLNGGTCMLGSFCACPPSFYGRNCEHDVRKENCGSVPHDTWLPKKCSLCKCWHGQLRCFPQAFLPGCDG

T4: Recombinant Activin A (human, UniProt P08476 311-426)
T4 construct: Activin A (inhibin beta A chain), recombinant; source: bought: R&D Biosystems or Life Technologies; also produced in-house
T4 sequence (looked up): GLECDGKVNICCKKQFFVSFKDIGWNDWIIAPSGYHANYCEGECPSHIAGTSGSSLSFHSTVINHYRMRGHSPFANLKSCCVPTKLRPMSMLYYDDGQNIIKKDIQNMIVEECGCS

T5: Human Cerberus-hIgg-Fc (human), O95813
T5 chain: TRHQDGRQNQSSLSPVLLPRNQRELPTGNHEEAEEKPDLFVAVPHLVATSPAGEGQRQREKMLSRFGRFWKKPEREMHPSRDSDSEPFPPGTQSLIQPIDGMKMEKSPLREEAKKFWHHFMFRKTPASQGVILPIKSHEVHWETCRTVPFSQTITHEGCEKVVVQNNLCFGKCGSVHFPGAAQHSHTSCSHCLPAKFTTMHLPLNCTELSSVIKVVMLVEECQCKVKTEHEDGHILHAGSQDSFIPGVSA

B1: recombinant human Nodal (ligand, UniProt Q96S42 238-347, looked up)
chain: HHLPDRSQLCRKVKFQVDFNLIGWGSWIIYPKQYNAYRCEGECPNPVGEEFHPTNHAYIQSLLKRYQPHRVPSTCCAPVKTKPLSMLYVDNGRVLLDHHKDMIVEECGCL
notes: Nodal, human, recombinant (RnD Systems); source: bought: RnD Systems

How the values were obtained:
Experiment in all cases: SPR; Biacore 2000; 200-300 RU of Fc fusion captured by anti-human IgG (Fc) antibody on a CM5 chip; concentration series of ligand injected at 50 ul/min; 25 C; HBS-EPS (0.01 M HEPES, 0.5 M NaCl, 3 mM EDTA, 0.005% Tween 20, pH 7.4); 1:1 Langmuir model with mass transport; Kd = kd/ka
human Cryptic-hIgg-Fc = target: T6, human Cryptic-hIgg-Fc (human, UniProt P0CG37 26-158); conditions: both partners purified
T6 construct: signal peptide in the construct; human Cryptic (1-158), joined to human IgG1 Fc by a 22 amino acid linker with a TEV site, a glycine/serine rich region and a FLAG-tag; Synthetic gene from GeneArt; also called Cryptic-Fc; source: CHO cells, purified from conditioned medium (Protein A, SEC)
T6 sequence (P0CG37 26-158): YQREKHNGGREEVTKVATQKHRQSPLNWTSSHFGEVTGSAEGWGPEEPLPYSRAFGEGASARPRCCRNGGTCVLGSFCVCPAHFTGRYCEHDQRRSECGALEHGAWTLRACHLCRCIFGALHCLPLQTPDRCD

Human Cerberus-hIgg-Fc [1] = target: T1, Human Cerberus-hIgg-Fc; conditions: both partners purified
BMPRII-Fc = target: T2, BMPRII-Fc; conditions: both partners purified
Cripto-1-Fc = target: T3, Cripto-1-Fc; conditions: both partners purified
Human Cerberus-hIgg-Fc [2] = target: T1, Human Cerberus-hIgg-Fc; conditions: both partners purified; remark: listed apart in the source
recombinant human Nodal = target: B1; conditions: both partners purified
Recombinant Activin A = target: T4, Recombinant Activin A; conditions: both partners purified
[3] = target: T5, Human Cerberus-hIgg-Fc (human), O95813; conditions: remark: other sources report otherwise

Kd (Human Cerberus-hIgg-Fc [1]) | koff (Human Cerberus-hIgg-Fc [1]) | kon (Human Cerberus-hIgg-Fc [1]) | Kd (recombinant human Nodal) | koff (recombinant human Nodal) | kon (recombinant human Nodal) | Kd (Recombinant Activin A) | koff (Recombinant Activin A) | kon (Recombinant Activin A) | Binder | other results
1.1 nM | 1.4e-05 s⁻¹ | 13000 M⁻¹ s⁻¹ |  |  |  |  |  |  | B1 | Kd (human Cryptic-hIgg-Fc): 2000 nM; koff (human Cryptic-hIgg-Fc): 0.001 s⁻¹; kon (human Cryptic-hIgg-Fc): 550 M⁻¹ s⁻¹; Kd (BMPRII-Fc): 0.149 nM; koff (BMPRII-Fc): 4.6e-05 s⁻¹; kon (BMPRII-Fc): 310000 M⁻¹ s⁻¹; Kd (Cripto-1-Fc): 16 nM; koff (Cripto-1-Fc): 0.00026 s⁻¹; kon (Cripto-1-Fc): 10000 M⁻¹ s⁻¹; Kd (Human Cerberus-hIgg-Fc [2]): 1 nM
 |  |  | ~15 nM | ~0.00032 s⁻¹ | ~46000 M⁻¹ s⁻¹ | 2.4 nM | 0.00048 s⁻¹ | 200000 M⁻¹ s⁻¹ | human ALK4-hIgg-Fc (Fc fusion, UniProt P36896 24-110, looked up, signal peptide in the construct; extracellular domain of human ALK4 (1-110), joined to human IgG1 Fc by a 22 amino acid linker with a TEV site, a glycine/serine rich region and a FLAG-tag; Synthetic gene from GeneArt; also called ALK4-Fc; source: CHO cells, purified) SGPRGVQALLCACTSCLQANYTCETDGACMVSIFNLDGMEHHVRTCIPKVELVPAGKPFYCLSSEDLRNTHCCYTDYCNRIDLRVPS | 
 |  |  | ~10 nM | ~0.00049 s⁻¹ | ~49000 M⁻¹ s⁻¹ | 0.018 nM | 2.7e-05 s⁻¹ | 1.5e+06 M⁻¹ s⁻¹ | human ACTRIIB-hIgg-Fc (Fc fusion, UniProt Q13705 19-120, looked up, signal peptide in the construct; extracellular domain of human ActRIIB (1-120), joined to human IgG1 Fc by a 22 amino acid linker with a TEV site, a glycine/serine rich region and a FLAG-tag; Synthetic gene from GeneArt; also called ACTRIIB-Fc; source: CHO cells, purified from conditioned medium (Protein A, SEC)) SGRGEAETRECIYYNANWELERTNQSGLERCEGEQDKRLHCYASWRNSSGTIELVKKGCWLDDFNCYDRQECVATEENPQVYFCCCEGNFCNERFTHLPEAG | 
5800 nM | 0.014 s⁻¹ | 1200 M⁻¹ s⁻¹ |  |  |  |  |  |  | Recombinant GDF-11 (ligand, human, UniProt O95390 299-407, looked up, GDF-11, recombinant; source: bought: R&D Biosystems or Life Technologies) NLGLDCDEHSSESRCCRYPLTVDFEAFGWDWIIAPKRYKANYCSGQCEYMFMQKYPHTHLVQQANPRGSAGPCCTPTKMSPINMLYFNDKQQIIYGKIPGMVVDRCGCS | 
 |  |  |  |  |  |  |  |  | Recombinant BMP-2, P12643 283-396 (ligand) QAKHKQRKRLKSSCKRHPLYVDFSDVGWNDWIVAPPGYHAFYCHGECPFPLADHLNSTNHAIVQTLVNSVNSKIPKACCVPTELSAISMLYLDENEKVVLKNYQDMVVEGCGCR | Kd [3]: 3000 nM; koff [3]: 0.072 s⁻¹; kon [3]: 24000 M⁻¹ s⁻¹
